Test results as given in patent publication US20230158141A1 (YAFEI SHANGHAI BIOLOG MEDICINE SCIENCE AND TECHNOLOGY, published 2023).

B1: IL-10 Ser8Cys-R4-5 (ligand, human, UniProt P22301 19-178, looked up)
chain: SPGQGTQCENSCTHFPGNLPNMLRDLRDAFSRVKTFFQMKDQLDNLLLKESLLEDFKGYLGCQALSEMIQFYLEEVMPQAENQDPDIKAHVNSLGENLKTLRLRLRRCHRFLPCENKSKAVEQVKNAFNKLQEKGIYKAMSEFDIFINYIEAYMTMKIRN
modifications: R4-5 on Cys 8
notes: mature
B2: IL-10 Ser11Cys-R4-7 (ligand, human, UniProt P22301 19-178, looked up)
chain: SPGQGTQSENCCTHFPGNLPNMLRDLRDAFSRVKTFFQMKDQLDNLLLKESLLEDFKGYLGCQALSEMIQFYLEEVMPQAENQDPDIKAHVNSLGENLKTLRLRLRRCHRFLPCENKSKAVEQVKNAFNKLQEKGIYKAMSEFDIFINYIEAYMTMKIRN
modifications: R4-7 on Cys 11
notes: mature
B3: IL-10 Ser93Cys-R4-2 (ligand, human, UniProt P22301 19-178, looked up)
chain: SPGQGTQSENSCTHFPGNLPNMLRDLRDAFSRVKTFFQMKDQLDNLLLKESLLEDFKGYLGCQALSEMIQFYLEEVMPQAENQDPDIKAHVNCLGENLKTLRLRLRRCHRFLPCENKSKAVEQVKNAFNKLQEKGIYKAMSEFDIFINYIEAYMTMKIRN
modifications: R4-2 on Cys 93
notes: mature; the row prints S in one column and Asp in the next
B4: IL-10 Ser51Cys-S48 (ligand, human, UniProt P22301 19-178, looked up)
chain: SPGQGTQSENSCTHFPGNLPNMLRDLRDAFSRVKTFFQMKDQLDNLLLKECLLEDFKGYLGCQALSEMIQFYLEEVMPQAENQDPDIKAHVNSLGENLKTLRLRLRRCHRFLPCENKSKAVEQVKNAFNKLQEKGIYKAMSEFDIFINYIEAYMTMKIRN
modifications: S48 on Cys 51
notes: mature
B5: IL-10 Ser93Cys-S48 (ligand, human, UniProt P22301 19-178, looked up)
chain: SPGQGTQSENSCTHFPGNLPNMLRDLRDAFSRVKTFFQMKDQLDNLLLKESLLEDFKGYLGCQALSEMIQFYLEEVMPQAENQDPDIKAHVNCLGENLKTLRLRLRRCHRFLPCENKSKAVEQVKNAFNKLQEKGIYKAMSEFDIFINYIEAYMTMKIRN
modifications: S48 on Cys 93
notes: as for B3
B6: IL-10 Ser11Cys-S48 (ligand, human, UniProt P22301 19-178, looked up)
chain: SPGQGTQSENCCTHFPGNLPNMLRDLRDAFSRVKTFFQMKDQLDNLLLKESLLEDFKGYLGCQALSEMIQFYLEEVMPQAENQDPDIKAHVNSLGENLKTLRLRLRRCHRFLPCENKSKAVEQVKNAFNKLQEKGIYKAMSEFDIFINYIEAYMTMKIRN
modifications: S48 on Cys 11
notes: mature
B7: IL-10 Ser8Cys-S48 (ligand, human, UniProt P22301 19-178, looked up)
chain: SPGQGTQCENSCTHFPGNLPNMLRDLRDAFSRVKTFFQMKDQLDNLLLKESLLEDFKGYLGCQALSEMIQFYLEEVMPQAENQDPDIKAHVNSLGENLKTLRLRLRRCHRFLPCENKSKAVEQVKNAFNKLQEKGIYKAMSEFDIFINYIEAYMTMKIRN
modifications: S48 on Cys 8
notes: mature
B8: IL-10 Ser118Cys-R4-5 (ligand, human, UniProt P22301 19-178, looked up)
chain: SPGQGTQSENSCTHFPGNLPNMLRDLRDAFSRVKTFFQMKDQLDNLLLKESLLEDFKGYLGCQALSEMIQFYLEEVMPQAENQDPDIKAHVNSLGENLKTLRLRLRRCHRFLPCENKCKAVEQVKNAFNKLQEKGIYKAMSEFDIFINYIEAYMTMKIRN
modifications: R4-5 on Cys 118
notes: mature
B9: IL-10 Ser118Cys-S48 (ligand, human, UniProt P22301 19-178, looked up)
chain: SPGQGTQSENSCTHFPGNLPNMLRDLRDAFSRVKTFFQMKDQLDNLLLKESLLEDFKGYLGCQALSEMIQFYLEEVMPQAENQDPDIKAHVNSLGENLKTLRLRLRRCHRFLPCENKCKAVEQVKNAFNKLQEKGIYKAMSEFDIFINYIEAYMTMKIRN
modifications: S48 on Cys 118
notes: mature
B10: IL-10 Ser51Cys-R4-7 (ligand, human, UniProt P22301 19-178, looked up)
chain: SPGQGTQSENSCTHFPGNLPNMLRDLRDAFSRVKTFFQMKDQLDNLLLKECLLEDFKGYLGCQALSEMIQFYLEEVMPQAENQDPDIKAHVNSLGENLKTLRLRLRRCHRFLPCENKSKAVEQVKNAFNKLQEKGIYKAMSEFDIFINYIEAYMTMKIRN
modifications: R4-7 on Cys 51
notes: mature

What follows are binders tested against T1, IL-10R1-Fc (UniProt Q13651 22-235, limits assumed) (assay: ELISA, IL-10R1-Fc coated).
T1 sequence (looked up): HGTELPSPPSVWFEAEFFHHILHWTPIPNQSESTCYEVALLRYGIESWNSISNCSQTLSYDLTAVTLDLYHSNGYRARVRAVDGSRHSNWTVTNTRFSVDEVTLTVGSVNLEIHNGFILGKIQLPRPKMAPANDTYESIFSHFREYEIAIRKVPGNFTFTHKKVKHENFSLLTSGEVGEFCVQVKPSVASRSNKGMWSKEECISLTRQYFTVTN

| Binder | Binding recovery (>60%) | Decreased fold of binding to ligand after Conjugating with S48 |
| --- | --- | --- |
| B1 | 100% |  |
| B2 | 133% |  |
| B3 | 100% |  |
| B4 |  | 3 fold |
| B5 |  | 3 fold |
| B6 |  | 9 fold |
| B7 |  | 3 fold |
| B8 | 100% |  |
| B9 |  | 3 fold |
| B10 | 96.7% |  |
